# Laboratory results from IntAct's records for PubMed 29039417.
# B1: BBSome complex member BBS1 (Homo sapiens), Q8NFJ9 (parent)
# chain: MAAASSSDSDACGAESNEANSKWLDAHYDPMANIHTFSACLALADLHGDGEYKLVVGDLGPGGQQPRLKVLKGPLVMTESPLPALPAAAATFLMEQHEPRTPALALASGPCVYVYKNLRPYFKFSLPQLPPNPLEQDLWNQAKEDRIDPLTLKEMLESIRETAEEPLSIQSLRFLQLELSEMEAFVNQHKSNSIKRQTVITTMTTLKKNLADEDAVSCLVLGTENKELLVLDPEAFTILAKMSLPSVPVFLEVSGQFDVEFRLAAACRNGNIYILRRDSKHPKYCIELSAQPVGLIRVHKVLVVGSTQDSLHGFTHKGKKLWTVQMPAAILTMNLLEQHSRGLQAVMAGLANGEVRIYRDKALLNVIHTPDAVTSLCFGRYGREDNTLIMTTRGGGLIIKILKRTAVFVEGGSEVGPPPAQAMKLNVPRKTRLYVDQTLREREAGTAMHRAFQTDLYLLRLRAARAYLQALESSLSPLSTTAREPLKLHAVVQGLGPTFKLTLHLQNTSTTRPVLGLLVCFLYNEALYSLPRAFFKVPLLVPGLNYPLETFVESLSNKGISDIIKVLVLREGQSAPLLSAHVNMPGSEGLAAA
# partner: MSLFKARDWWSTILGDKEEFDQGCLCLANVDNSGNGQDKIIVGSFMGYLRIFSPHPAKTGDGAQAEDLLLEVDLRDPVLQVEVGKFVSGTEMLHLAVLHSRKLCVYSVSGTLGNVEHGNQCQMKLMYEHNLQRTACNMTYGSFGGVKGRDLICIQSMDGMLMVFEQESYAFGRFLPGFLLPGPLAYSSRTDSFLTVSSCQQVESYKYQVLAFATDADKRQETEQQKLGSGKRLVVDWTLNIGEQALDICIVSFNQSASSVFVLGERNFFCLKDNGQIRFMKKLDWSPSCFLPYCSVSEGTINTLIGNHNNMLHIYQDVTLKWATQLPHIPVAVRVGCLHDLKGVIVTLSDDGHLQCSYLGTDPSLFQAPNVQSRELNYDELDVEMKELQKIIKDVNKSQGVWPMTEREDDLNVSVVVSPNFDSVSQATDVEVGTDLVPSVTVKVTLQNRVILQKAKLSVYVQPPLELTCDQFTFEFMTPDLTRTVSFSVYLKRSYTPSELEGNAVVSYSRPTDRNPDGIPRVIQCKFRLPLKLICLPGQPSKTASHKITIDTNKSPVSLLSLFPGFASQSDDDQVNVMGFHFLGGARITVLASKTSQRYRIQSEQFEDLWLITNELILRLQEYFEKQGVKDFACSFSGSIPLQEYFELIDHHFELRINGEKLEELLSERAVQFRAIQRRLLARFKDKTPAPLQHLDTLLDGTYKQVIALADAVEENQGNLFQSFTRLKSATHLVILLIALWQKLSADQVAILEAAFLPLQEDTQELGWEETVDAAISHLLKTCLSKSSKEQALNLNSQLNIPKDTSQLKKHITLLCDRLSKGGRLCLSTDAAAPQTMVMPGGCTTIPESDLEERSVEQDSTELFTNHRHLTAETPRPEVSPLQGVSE
# Variants of: B1
# Details: with pthb1_human BBS9, Q3SYG4
row,effect of a mutation on the interaction,Variant
1,with no effect,MAAASSSDSDACGAESNEANSKWLDAHYDPMANIHTFSACLALADLHGDGEYKLVVGDLGPGGQQPRLKVLKGPLVMTESPLPALPAAAATFLMEQHEPRTPALALASGPCVYVYKNLRPYFKFSLPQLPPNPLEQDLWNQAKEDRIDPLTLKEMLESIRETAEEPLSIQSLRFLQLELSEMEAFVNQHKSNSIKRQTVITTMTTLKKNLADEDAVSCLVLGTENKELLVLDPEAFTILAKMSLPSVPVFLEVSGQFDVEFRLAAACRNGNIYILRRDSKHPKYCIELSAQPVGLIRVHKVLVVGSTQDSLHGFTHKGKKLWTVQMPAAILTMNLLEQHSRGLQAVMAGLANGEVRIYRDKALLNVIHTPDAVTSLCFGRYGREDNTLIMTTRGGGLIIKILKRTAVFVEGGSEVGPPPAQAMKLNVPRKTRLYVDQTLREREAGTAMHRAFQTDLYLLRLRAARAYLQALESSLSPLSTTAREPLKLHAVVQGLGPTFKLTLHLQNTSTTRPVLGLLVCFLYNEALYSLPRAFFKVPLLVPGLNYPLETFVESLSNKGISAIIKVLVLREGQSAPLLSAHVNMPGSEGLAAA [D562A]
2,with no effect,MAAASSSDSDACGAESNEANSKWLDAHYDPMANIHTFSACLALADLHGDGEYKLVVGDLGPGGQQPRLKVLKGPLVMTESPLPALPAAAATFLMEQHEPRTPALALASGPCVYVYKNLRPYFKFSLPQLPPNPLEQDLWNQAKEDRIDPLTLKEMLESIRETAEEPLSIQSLRFLQLELSEMEAFVNQHKSNSIKRQTVITTMTTLKKNLADEDAVSCLVLGTENKELLVLDPEAFTILAKMSLPSVPVFLEVSGQFDVEFRLAAACRNGNIYILRRDSKHPKYCIELSAQPVGLIRVHKVLVVGSTQDSLHGFTHKGKKLWTVQMPAAILTMNLLEQHSRGLQAVMAGLANGEVRIYRDKALLNVIHTPDAVTSLCFGRYGREDNTLIMTTRGGGLIIKILKRTAVFVEGGSEVGPPPAQAMKLNVPRKTRLYVDQTLREREAGTAMHRAFQTDLYLLRLRAARAYLQALESSLSPLSTTAREPLKLHAVVQGLGPTFKLTLHLQNTSTTRPVLGLLVCFLYNEALYSLPRAFFKVPLLVPGLNYPLETFVESLSNKKISDIIKVLVLREGQSAPLLSAHVNMPGSEGLAAA [G559K]
3,with no effect,MAAASSSDSDACGAESNEANSKWLDAHYDPMANIHTFSACLALADLHGDGEYKLVVGDLGPGGQQPRLKVLKGPLVMTESPLPALPAAAATFLMEQHEPRTPALALASGPCVYVYKNLRPYFKFSLPQLPPNPLEQDLWNQAKEDRIDPLTLKEMLESIRETAEEPLSIQSLRFLQLELSEMEAFVNQHKSNSIKRQTVITTMTTLKKNLADEDAVSCLVLGTENKELLVLDPEAFTILAKMSLPSVPVFLEVSGQFDVEFRLAAACRNGNIYILRRDSKHPKYCIELSAQPVGLIRVHKVLVVGSTQDSLHGFTHKGKKLWTVQMPAAILTMNLLEQHSRGLQAVMAGLANGEVRIYRDKALLNVIHTPDAVTSLCFGRYGREDNTLIMTTRGGGLIIKILKRTAVFVEGGSEVGPPPAQAMKLNVPRKTRLYVDQTLREREAGTAMHRAFQTDLYLLRLRAARAYLQALESSLSPLSTTAREPLKLHAVVQGLGPTFKLTLHLQNTSTTRPVLGLLVCFLYNEALYSLPRAFFKVPLLVPGLNYPLETFVESLSNKGASDIIKVLVLREGQSAPLLSAHVNMPGSEGLAAA [I560A]
4,with no effect,MAAASSSDSDACGAESNEANSKWLDAHYDPMANIHTFSACLALADLHGDGEYKLVVGDLGPGGQQPRLKVLKGPLVMTESPLPALPAAAATFLMEQHEPRTPALALASGPCVYVYKNLRPYFKFSLPQLPPNPLEQDLWNQAKEDRIDPLTLKEMLESIRETAEEPLSIQSLRFLQLELSEMEAFVNQHKSNSIKRQTVITTMTTLKKNLADEDAVSCLVLGTENKELLVLDPEAFTILAKMSLPSVPVFLEVSGQFDVEFRLAAACRNGNIYILRRDSKHPKYCIELSAQPVGLIRVHKVLVVGSTQDSLHGFTHKGKKLWTVQMPAAILTMNLLEQHSRGLQAVMAGLANGEVRIYRDKALLNVIHTPDAVTSLCFGRYGREDNTLIMTTRGGGLIIKILKRTAVFVEGGSEVGPPPAQAMKLNVPRKTRLYVDQTLREREAGTAMHRAFQTDLYLLRLRAARAYLQALESSLSPLSTTAREPLKLHAVVQGLGPTFKLTLHLQNTSTTRPVLGLLVCFLYNEALYSLPRAFFKVPLLVPGLNYPLETFVESLSNKGKSDIIKVLVLREGQSAPLLSAHVNMPGSEGLAAA [I560K]
5,with no effect,MAAASSSDSDACGAESNEANSKWLDAHYDPMANIHTFSACLALADLHGDGEYKLVVGDLGPGGQQPRLKVLKGPLVMTESPLPALPAAAATFLMEQHEPRTPALALASGPCVYVYKNLRPYFKFSLPQLPPNPLEQDLWNQAKEDRIDPLTLKEMLESIRETAEEPLSIQSLRFLQLELSEMEAFVNQHKSNSIKRQTVITTMTTLKKNLADEDAVSCLVLGTENKELLVLDPEAFTILAKMSLPSVPVFLEVSGQFDVEFRLAAACRNGNIYILRRDSKHPKYCIELSAQPVGLIRVHKVLVVGSTQDSLHGFTHKGKKLWTVQMPAAILTMNLLEQHSRGLQAVMAGLANGEVRIYRDKALLNVIHTPDAVTSLCFGRYGREDNTLIMTTRGGGLIIKILKRTAVFVEGGSEVGPPPAQAMKLNVPRKTRLYVDQTLREREAGTAMHRAFQTDLYLLRLRAARAYLQALESSLSPLSTTAREPLKLHAVVQGLGPTFKLTLHLQNTSTTRPVLGLLVCFLYNEALYSLPRAFFKVPLLVPGLNYPLETFVESLSNKGESDIIKVLVLREGQSAPLLSAHVNMPGSEGLAAA [I560E]
